Patent publication US9217139B2, “Extracellularly secreted nuclease” (JAPAN AGENCY FOR MARINE-EARTH SCIENCE AND TECHNOLOGY, priority 2010, dated 2015)

Experiments:
[1] = isoelectric point by Novex IEF pH-3-10 gel; type: physicochemical
Experimental: The molecular weight was measured by gel filtration chromatography with the use of Superdex G75 (manufactured by GE Healthcare). An elution position corresponding to a molecular weight of about 16 kDa was confirmed as a peak top from a column. Since the value was much coincident with a molecular weight (about 17 to 21 kDa) of an enzyme produced on SDS-PAGE, it can be determined that NucS exists as monomer. The isoelectric point was measured by using Novex (Registered Trademark) IEF pH-3-10 gel (manufactured by Invitrogen); and pl was 10.
The specific activity of NucL was 5.6×10^4 U/mg-protein at 37 degrees Celsius in 20 mM of Tris/HCl at pH 8.5 that contains 1 mM of MgCl2 and 1 mM of CaCl2. The isoelectric point was measured by using Novex (Registered Trademark) IEF pH-3-10 gel (manufactured by Invitrogen); and then pl was 7.0. Then, it was determined that a N-terminal amino acid sequence of the purified enzyme was DSVRIHDIQGTTR. The sequence matched 12 out of 13 amino acids of putative protein (putative secreted hydrolase) coded on a genome of Streptomyces scabiei 87.22, and of putative protein (large secreted protein) coded on a genome of S. avermitilis MA-4680.

[2] = test system: Deoxyribonucleic acid sodium salt from salmon testes; assay: effects of pH on enzyme activity; type: biochemical; details: 25 degrees Celsius, 15 minutes, 1 mM MgCl2, 1 mM CaCl2
Experimental: At each level of pH, the nucleic-acid degradation activity was measured at 25 degrees Celsius for 15 minutes by using, as substrate, Deoxyribonucleic acid sodium salt from salmon testes 0.4 mg/mL (manufactured by Sigma-Aldrich; Cat no. D1626-1G) in 20 mM of the following solution containing 1 mM of MgCl2 and 1 mM of CaCl2: 2-morpholino ethanesulfonic acid; monohydrate/NaOH(MES, pH 5.5 to 7.0); 3-morpholino propanesulfonic acid/NaOH (MOPS, pH 7 to 8); N-tris(hydroxymethyl)methyl-3-aminopropanesulfonic acid/NaOH (TAPS, pH 8 to 9); N-cyclohexyl-2-aminoethanesulfonic acid/NaOH (CHES, pH 9 to 9.5); or N-cyclohexyl-3-aminopropanesulfonic acid/NaOH (CAPS, 9.5 to 10).

[3] = test system: Deoxyribonucleic acid sodium salt from salmon testes; assay: effects of divalent metal salt on enzyme activity; type: biochemical; details: 20 mM Tris/HCl pH 8.5, 1 mM CaCl2, 25 degrees Celsius
Experimental: Effects of divalent metal salt on NucS and NucL were examined. NucS or NucL was added to a reaction solution that was obtained by adding, as substrate, Deoxyribonucleic acid sodium salt from salmon testes 0.4 mg/mL (manufactured by Sigma-Aldrich; Cat no. D1626-1G) into 20 mM of Tris/HCl at pH 8.5 that contained 1 mM of CaCl2 and 0 to 20 mM of MgCl2 or MnCl2; and the mixture was incubated in ice for 30 minutes. Then, the nucleic-acid degradation activity was measured at 25 degrees Celsius for 15 minutes. […] Incidentally, in the present test, in order to enhance the stability of the enzymes, 1 mM of CaCl2 was added to all the reaction solutions.

[4] = test system: Deoxyribonucleic acid sodium salt from salmon testes; assay: effects of phosphate on enzyme activity; type: biochemical
Experimental: Effects of phosphate on NucS and NucL were examined. In 0 to 40 mM of potassium phosphate buffer at pH 8.5 that contained 1 mM of MgCl2 and 1 mM of CaCl2, the nucleic-acid degradation activity was measured at 25 degrees Celsius for 15 minutes by using, as substrate, Deoxyribonucleic acid sodium salt from salmon testes 0.4 mg/mL (manufactured by Sigma-Aldrich; Cat no. D1626-1G). […] Meanwhile, compared with NucS, NucL was excellent in resistance to phosphate. NucL could maintain 50 percent of activity even in the presence of 10 mM of potassium phosphate (referring to FIG. 11).

[5] = test system: Circular plasmid DNA (pUC 18); assay: degradation of circular plasmid DNA (agarose gel electrophoresis); type: biochemical; details: single enzyme, 25 degrees Celsius, 15 minutes; NucL level up to 0.5 U
Experimental: Circular plasmid DNA (pUC 18) that had been purified by using a plasmid purification kit (HiSpeed (Registered Trademark) Plasmid Midi Kit; manufactured by QIAGEN, Cat no. 12643) was used as substrate to analyze nucleic-acid degradation styles of NucS and NucL. According to the standard specific activity measurement method, the enzyme solutions that were different in enzyme level as shown in the table below were added to a plasmid solution (about 2 to 10 μg). Then, a nucleic-acid degradation reaction was carried out at 25 degrees Celsius for 15 minutes. After the degradation, a reaction solution was subjected to a 1-percent agarose gel electrophoresis, and the degradation manner of the degraded DNA was analyzed.
Next, the enzyme level of NucL was increased to 0.5 U, and a test was conducted to examine if the plasmid could be completely degraded (referring to FIG. 13).

[6] = test system: RNA (mRNA derived from yeast); assay: degrading activity for RNA; type: biochemical

B1: NucL: nucleolytic enzyme of about 66.5 kDa secreted by Streptomyces sp. MBE174; SEQ ID NO. 4 (protein)
chain: MASQSVTRLAALTVAATCSAASVVVLGPPAHADSVRIHDIQGTTRISPYAGRQVADVPGVVTGVRDHGSSRGFWFQDPRPDDDPATSEGVFVFTGSAPGVEAGDAVTVSGTVSEFVPGGTASGNQSLTEITRPTVTVVSRGNPVPDPVVVSARSVPHAYAPAGDAAANGSVNALPLRPDRYALDYYESLEGMNVQVADARVVGATDPYTELWVTVKPGENASPRGGTVYGSRDAQNTGRLQIQTLGVPAGFPAADVGDTLAGATTGPLDYNQFGGYTLVARSLGTLTAGGLARETTREQHRDELSVATYNVENLDPSDGTFAAHAEAIVRNLRSPDIVSLEEIQDDNGATDDGTVTAGVTVGKLIDAVVAAGGPRYDWRSVDPVDKADGGQPGGNIRQVFLFDPRRVSFADRPGGDAVTATGVVKVRGKAALTHSPGRVDPANPAWLNSRKPLAGEFSFRGRTVFVIANHFASKGGDQGLTSQYQPPARSSETQRHLQATAVNTFVKQILAVQKNADVIALGDINDFEFSGTTERLEAGGALWSAVRSLPPGERYSYVYQGNSQVLDQILVSPSIRRGHLSYDSVHINAEFHDQISDHDPQVLRYRP
modifications: Streptmyces sp. MBE174
[1]
  isoelectric point (pl): 7.0
[2]
  optimum reaction pH: around 8.8
[3]
  requirement of divalent metal salt for activation: required divalent metal salt for activation
[4]; 10 mM of potassium phosphate, pH 8.5, 25 degrees Celsius
  activity maintained in the presence of phosphate: 50%
[5]
  degradation of circular plasmid DNA, supercoiled or relaxed type: could completely degrade the plasmids
[6]
  RNA degrading activity: did not show RNA degrading activity

B2: NucS: low-molecular-weight nucleolytic enzyme, about 17 to 21 kDa, secreted by Streptomyces sp. MBE174; SEQ ID NO. 3 (protein)
chain: MPKLYARRRFAVLAALTGLIASAGLFHGPAASAALPTPVSAATARGYLASLKVAPENRTGYKRDLFPHWITQSGTCNTRETVLKRDGTNVVTDAACAATSGSWYSPFDGATWTAASDVDIDHLVPLAEAWDSGASAWTTAQRQAFANDLTRPQLLAVTDTVNQSKGDKDPAEWMPPRAAYHCTYVRAWVQVKYYYGLSVDTAEKTALTNRLAGC
modifications: Streptmyces sp. MBE174
[1]
  isoelectric point (pl): 10
[2]
  optimum reaction pH: around 8.5
[3]
  activity in the presence of 1 to 2 mM of MnCl2 compared with MgCl2: substantially the same level of activity
  requirement of divalent metal salt for activation: required divalent metal salt for activation
[4]; potassium phosphate buffer pH 8.5, 1 mM MgCl2, 1 mM CaCl2, 25 degrees Celsius
  phosphate concentration that made the enzyme inactive: ≥ 0.5 mM
[5]
  degradation of circular plasmid DNA, supercoiled or relaxed type: could completely degrade the plasmids
[6]
  RNA degrading activity: showed RNA degrading activity
